Data from patent publication US20160362464A1 (University of California, published 2016).

T1: GST-DAPLE-CT (human, UniProt Q9P219 1650-2028)
T1 construct: also called GST-DAPLE-CT WT; not shown: glutathione S-transferase tag of the pGEX-4T vector
T1 sequence: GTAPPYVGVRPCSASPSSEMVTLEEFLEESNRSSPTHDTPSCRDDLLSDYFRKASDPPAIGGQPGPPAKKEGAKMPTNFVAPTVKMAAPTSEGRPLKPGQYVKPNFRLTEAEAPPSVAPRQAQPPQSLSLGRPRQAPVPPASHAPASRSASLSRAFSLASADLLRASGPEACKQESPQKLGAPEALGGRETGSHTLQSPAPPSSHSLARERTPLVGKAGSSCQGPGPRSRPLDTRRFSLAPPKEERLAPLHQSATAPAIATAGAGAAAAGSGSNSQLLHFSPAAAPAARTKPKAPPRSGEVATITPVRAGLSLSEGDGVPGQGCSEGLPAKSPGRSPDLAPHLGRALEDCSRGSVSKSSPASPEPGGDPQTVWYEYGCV

B1: His-DAPLE-CT (aa 1650-2028) (other)
chain: T1 sequence
notes: Recombinant, purified from E. coli; also called His-DAPLE-CT WT; DAPLE-CT WT; not shown: His tag and vector residues of pET28b
B2: GST-Gao (other, rat, UniProt P59215 1-354, looked up)
chain: MGCTLSAEERAALERSKAIEKNLKEDGISAAKDVKLLLLGAGESGKSTIVKQMKIIHEDGFSGEDVKQYKPVVYSNTIQSLAAIVRAMDTLGVEYGDKERKADSKMVCDVVSRMEDTEPFSAELLSAMMRLWGDSGIQECFNRSREYQLNDSAKYYLDSLDRIGAADYQPTEQDILRTRVKTTGIVETHFTFKNLHFRLFDVGGQRSERKKWIHCFEDVTAIIFCVALSGYDQVLHEDETTNRMHESLMLFDSICNNKFFIDTSIILFLNKKDLFGEKIKKSPLTICFPEYPGSNTYEDAAAYIQTQFESKNRSPNKEIYCHMTCATDTNNIQVVFDAVTDIIIANNLRGCGLY
notes: also called Gαo; not shown: glutathione S-transferase tag of the pGEX-4T-1 vector
B3: His-Gαi3 (GDP-loaded) (other, rat, UniProt P08753 1-354, looked up)
chain: MGCTLSAEDKAAVERSKMIDRNLREDGEKAAKEVKLLLLGAGESGKSTIVKQMKIIHEDGYSEDECKQYKVVVYSNTIQSIIAIIRAMGRLKIDFGEAARADDARQLFVLAGSAEEGVMTSELAGVIKRLWRDGGVQACFSRSREYQLNDSASYYLNDLDRISQTNYIPTQQDVLRTRVKTTGIVETHFTFKELYFKMFDVGGQRSERKKWIHCFEGVTAIIFCVALSDYDLVLAEDEEMNRMHESMKLFDSICNNKWFTDTSIILFLNKKDLFEEKIKRSPLTICYPEYTGSNTYEEAAAYIQCQFEDLNRRKDTKEVYTHFTCATDTKNVQFVFDAVTDVIIKNNLKECGLY
notes: also called recombinant His-Gαi3; not shown: His tag
B4: Gαi3-FLAG (other, rat, UniProt P08753 1-354, looked up)
chain: B3 chain
notes: Expressed in HEK293 or Cos7 cells; immunoprecipitated with anti-FLAG mAb; also called FLAG-Gαi3; not shown: FLAG tag
B5: GST-GIV (aa 1671-1755) (other, UniProt Q3V6T2 1671-1755, looked up)
chain: IKTGSPGSEVVTLQQFLEESNKLTSVQIKSSSQENLLDEVMKSLSVSSDFLGKDKPVSCGLARSVSGKTPGDFYDRRTTKPEFLR
notes: range 1671-1755; also called GST-GIV CT 1671-1755 aa; not shown: glutathione S-transferase tag

What was measured:
His-Gαi3 (GDP-loaded) [1] = target: B3; assay: cell-based or functional assay
[2] = target: T2, GST-Gαi3 preloaded with GDP (inactive) (rat, UniProt P08753 1-354); assay: displacement of Gβγ from preformed GST-Gαi3·Gβγ complexes, immunoblot fitted to a single-site competition curve (FIG. 3C)
T2 construct: Immobilized on glutathione beads; Same polypeptide as m11, other nucleotide state; also called GST-Gαi3 WT; not shown: glutathione S-transferase tag of the pGEX-4T-1 vector
Source text: FIGS. 3A-3J. DAPLE's GBA motif triggers the release of ‘free’ Gβγ subunits, which in turn enhance Rac1 and PI3K-Akt signaling. (A) DAPLE's GBA motif and Gβγ subunits are predicted to dock onto an overlapping binding site on Gαi. Binding areas (in red) for DAPLE (left) or Gβγ (right) on Gαi (solid grey) were extracted from a homology-based model of DAPLE-Gαi3 and the crystal structure of the Gαi1·Gβγ complex (PBD: 1GG2), respectively. (B, C) DAPLE displaces Gβγ subunits from Gαi3 via its GEF motif. GST-Gαi3·Gβγ preformed complexes immobilized on glutathione beads were incubated with increasing concentrations of His-DAPLE-CT WT or F1675A (FA). Bound proteins were analyzed by immunoblotting (B) and Gβγ binding data fitted to a single-site competition curve (C). Mean±S.E.M. of 3 independent experiments. […] Control (shLuc) or two clones of DAPLE-depleted HeLa cell lines (shDAPLE 1 and 2) (described in FIGS. 10A & 10B) were incubated in 2% serum media (D) or starved and treated (+) or not (β) with Wnt5a ([…]) for 5 min (E) and analyzed for Rac1 activation by pulldown assays using GST-PBD. […] DAPLE-depleted (shDAPLE 1) HeLa cells transiently transfected with myc-DAPLE-WT or FA were starved and stimulated with Wnt5a and analyzed for Rac1 activation as in E. (G, H) DAPLE's GBA motif is required for activation of PI3K-Akt signaling in HeLa cells, as determined by phosphorylation of Akt at 5473. […]

[3] = target: B1; assay: GST pulldown, purified proteins, inactive or active conformations (FIG. 1H)
Description: Equal aliquots of lysates of HEK293 cells expressing Gαi3-FLAG were incubated with anti-FLAG mAb or control IgG and protein G beads. Immune complexes were analyzed for DAPLE and Gαi3 (FLAG) by immunoblotting (IB). Gβ was monitored as positive Gαi3-binding control. […] Resin-bound proteins were eluted, separated by SDS-PAGE and analyzed by Ponceau S-staining and immunoblotting (IB) with the indicated antibodies. No binding to GST alone was detected. […] No binding of myc-DAPLE or Gβ to GST alone was detected. […] Insert, Purified GST-DAPLE-CT and GST-GIV (aa 1671-1755, containing the GBA motif) immobilized on glutathione-agarose beads were incubated with increasing amounts (0.01-3 μM) of purified His-Gαi3 (GDP-loaded) and binding analyzed by immunoblotting as described in (D). No binding to GST alone was detected at the highest His-Gαi3 concentration tested. Graph, Gαi3 binding was quantified by measuring band intensities and data fitted to a single-site binding hyperbola (DAPLE=BLUE, GIV=RED) to determine the equilibrium dissociation constants (Kd). Mean±S.E.M of 4 independent experiments. (G) DAPLE binds to all three Gαi subunits. […] (H) DAPLE selectively binds to Gαi, but not Gao.

GST-DAPLE-CT = target: T1, GST-DAPLE-CT; assay: GST pulldown with 0.01-3 µM His-Gαi3, band intensities fitted to a one-site binding curve (FIG. 1F)
GST-FZD7-CT = target: T3, GST-FZD7-CT (UniProt P08515 1-218 = GST); assay: GST-FZD7-CT pulldown of His-Gαi3 with His-DAPLE-CT WT against His-Gαi3 alone (FIG. 4E)
T3 construct: Immobilized on glutathione beads directly from bacterial lysates; also called GST-FZD7R-CT; Fzl17-CT
T3 sequence (P08515 whole entry): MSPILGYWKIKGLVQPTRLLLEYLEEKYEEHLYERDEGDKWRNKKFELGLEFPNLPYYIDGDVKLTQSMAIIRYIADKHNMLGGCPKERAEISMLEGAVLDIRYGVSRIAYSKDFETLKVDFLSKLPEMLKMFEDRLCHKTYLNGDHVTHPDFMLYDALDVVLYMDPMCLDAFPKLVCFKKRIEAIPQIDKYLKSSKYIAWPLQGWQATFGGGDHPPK

[4] = target: T4, myc-DAPLE full length F1675A (human, UniProt Q9P219 1-2028); assay: co-immunoprecipitation with anti-FLAG mAb from Cos7 cells (FIG. 2E)
T4 construct: Expressed in Cos7 cells; used as cell lysate; also called myc-DAPLE FA; DAPLE-FA; not shown: N-terminal myc tag of myc-pcDNA 3.1 (+)

His-Gαi3 (GDP-loaded) [5] = target: B3; assay: GST pulldown with 0.01-3 µM His-Gαi3, band intensities fitted to a one-site binding curve (FIG. 1F)

Binder: B1
- EC50 of the acceleration of Gαi3 steady-state GTPase activity (His-Gαi3 (GDP-loaded) [1]): 250 nM
- rate of steady-state GTP hydrolysis of His-Gαi3 (His-Gαi3 (GDP-loaded) [1]): ~3 fold
- IC50 [2]: 160 nM

Binder: B2
- binding result [3]: no binding

Binder: B3
- Kd (GST-DAPLE-CT): 110 nM
- fold increase of binding in the presence of DAPLE-CT WT (GST-FZD7-CT): ~5 fold

Binder: B4
- binding result [4]: no binding

Binder: B5
- Kd (His-Gαi3 (GDP-loaded) [5]): 240 nM
